{
  "source": "patent US9555076B2",
  "about": "“Neuregulin based methods and compositions for treating cardiovascular diseases” (Zensun (Shanghai) Science & Technology, Co., Ltd., priority 2002, dated 2017)",
  "molecules": {"B1": {"name": "rhNRG-1 β: Recombinant human neuregulin fragment of 61 amino acid (SEQ ID NO:4), 3 disulfide bonds, expressed in E. coli (protein, listed as Homo sapiens)", "chain": "SHLVKCAEKEKTFCVNGGECFMVKDLSNPSRYLCKCPNEFTGDRCQNYVMASFYKAEELYQ", "modifications": "disulfide (positions not given here)"}},
  "key": {"[1]": {"test_system": "congestive heart failure caused by inferior vena cava constriction in dog", "assay": "Echocardiography (EF, FS, CO), inferior vena cava constriction (TIVCC) dog", "type": "in vivo, crossbred dog", "method": "[…] dosage level of 1, 3 and 10 μg/kg respectively of rhNRG-1 β was diluted with preparation buffer solution (vehicle) to needed concentration, intravenous injection once everyday for consecutive 5 days.\n3% pentobarbital sodium (30 mg/kg) was injected into the peripheral vein to anesthetize the dog, then trachea intubated. […] Bred for 1 week, echocardiography performed according to the amount of ascites, when EF reduced by about 20% or dilatation of the left heart by about 20%, stable low cardiac output congestive heart failure animal model was established. Then intravenous injection of the drug was carried out for consecutive 5 days.\n• Heart function index determination was carried out under anesthesia of the dog prior to the operation, prior to and 5-day after the drug administration. Major index included: • EF (Ejection Fraction): heart ejection fraction, i.e., ratio of difference between end diastolic volume of the ventricle (EDV) and end systolic volume of ventricle (ESV) and end diastolic volume of ventricle, being general index used for reflecting pumping function of ventricle; especially reflecting the systolic function; • FS: ventricular short axis shortening rate, being index reflecting contraction function of ventricle, • CO: cardiac output, i.e. blood volume ejected by the heart per minute. 6.3.3.2 Hemodynamic Index Determination"}, "[2]": {"assay": "Acute toxicity experiment, intravenous injection", "type": "in vivo"}, "[3]": {"test_system": "congestive heart failure caused by inferior vena cava constriction in dog", "assay": "Hemodynamic index by catheterization, TIVCC dog", "type": "in vivo, crossbred dog", "details": "for L(−dp/dt) / L(+dp/dt): left ventricle", "method": "7F trifid balloon floating catheter was inserted into the right jugular vein, right auricular pressure, right ventricular pressure, pulmonary pressure and pulmonary wedge pressure were recorded.\n6F trifid balloon floating catheter was again inserted into left carotid artery, aorta pressure and left ventricle pressure were recorded with physiology recorder with the following major index: LVPmax, LVPmin, +dp/dt, and −dp/dt."}, "[4]": {"test_system": "heart failure in rat caused by ligation of coronary artery", "assay": "Nagar-Oslen staining of ischemic hypoxic myocardium", "type": "in vivo, SD rat", "source_text": "After fixed with 10% formaldehyde, myocardium of the rat was longitudinally cut with equal distance into 3 slices, conventionally embedded with paraffin, section made, HE stained, image analysis for area of fibrotic region of the heart, counted the number of capillary in the fibrotic lesion (counting unit: piece/mm^2); Nagar-Oslen stained, studied the size of ischemic hypoxic region in the myocardium.\nIn Nagar-Oslen stained section, normal myocardium stained with light yellow color, while ischemic hypoxic area stained deeper with reddish color. Ischemic hypoxic changes could be analyzed with this method and comparison of qualitative and semi-quantitative test could be made."}, "[5]": {"details": "1 μg/kg group, prior to drug administration"}, "[6]": {"details": "1 μg/kg iv daily 5 days, after drug administration"}, "[7]": {"details": "3 μg/kg group, prior to drug administration"}, "[8]": {"details": "3 μg/kg iv daily 5 days, after drug administration"}, "[9]": {"details": "10 μg/kg group, prior to drug administration"}, "[10]": {"details": "10 μg/kg iv daily 5 days, after drug administration"}, "[11]": {"details": "1, 3 and 10 μg/kg iv daily 5 days"}},
  "data": [
    {"molecule": "B1", "values": [
      {"measurement": "CO", "setting": "[1]; 1 μg/kg group, preoperation", "value": "4.2 ± 0.6", "unit": "L/min"},
      {"measurement": "EF", "setting": "[1]; 1 μg/kg group, preoperation", "value": "82.8 ± 3.0", "unit": "%"},
      {"measurement": "FS", "setting": "[1]; 1 μg/kg group, preoperation", "value": "50.8 ± 4.0", "unit": "%"},
      {"measurement": "CO", "setting": "[1]; [5]", "value": "2.4 ± 0.5", "unit": "L/min"},
      {"measurement": "EF", "setting": "[1]; [5]", "value": "57.7±10.9", "unit": "%"},
      {"measurement": "FS", "setting": "[1]; [5]", "value": "30.6±8.0", "unit": "%"},
      {"measurement": "CO", "setting": "[1]; 1 μg/kg group, prior to drug administration, listed as rhNRG-1β", "value": "2.4 ± 0.5", "unit": "L/min"},
      {"measurement": "CO", "setting": "[1]; [6]", "value": "3.7 ± 0.8", "unit": "L/min"},
      {"measurement": "EF", "setting": "[1]; [6]", "value": "70.4±8.4", "unit": "%"},
      {"measurement": "FS", "setting": "[1]; [6]", "value": "39.7±5.7", "unit": "%"},
      {"measurement": "CO", "setting": "[1]; 1 μg/kg iv daily 5 days, after drug administration, listed as rhNRG-1β", "value": "3.7 ± 0.8", "unit": "L/min"},
      {"measurement": "CO", "setting": "[1]; 3 μg/kg group, preoperation", "value": "4.3 ± 0.8", "unit": "L/min"},
      {"measurement": "EF", "setting": "[1]; 3 μg/kg group, preoperation", "value": "84.7 ± 2.8", "unit": "%"},
      {"measurement": "FS", "setting": "[1]; 3 μg/kg group, preoperation", "value": "51.7 ± 2.9", "unit": "%"},
      {"measurement": "CO", "setting": "[1]; [7]", "value": "2.1 ± 0.7", "unit": "L/min"},
      {"measurement": "EF", "setting": "[1]; [7]", "value": "58.0 ± 8.3", "unit": "%"},
      {"measurement": "FS", "setting": "[1]; [7]", "value": "29.9 ± 6.4", "unit": "%"},
      {"measurement": "CO", "setting": "[1]; [8]", "value": "4.0 ± 0.9", "unit": "L/min"},
      {"measurement": "EF", "setting": "[1]; [8]", "value": "74.7 ± 4.6", "unit": "%"},
      {"measurement": "FS", "setting": "[1]; [8]", "value": "42.4 ± 4.4", "unit": "%"},
      {"measurement": "CO", "setting": "[1]; 10 μg/kg group, preoperation", "value": "4.3 ± 0.6", "unit": "L/min"},
      {"measurement": "EF", "setting": "[1]; 10 μg/kg group, preoperation", "value": "82.9 ± 2.6", "unit": "%"},
      {"measurement": "FS", "setting": "[1]; 10 μg/kg group, preoperation", "value": "50.5 ± 3.3", "unit": "%"},
      {"measurement": "CO", "setting": "[1]; [9]", "value": "1.9 ± 0.3", "unit": "L/min"},
      {"measurement": "EF", "setting": "[1]; [9]", "value": "55.8 ± 10.0", "unit": "%"},
      {"measurement": "FS", "setting": "[1]; [9]", "value": "27.7 ± 5.6", "unit": "%"},
      {"measurement": "CO", "setting": "[1]; [10]", "value": "3.6 ± 0.7", "unit": "L/min"},
      {"measurement": "EF", "setting": "[1]; [10]", "value": "74.7 ± 3.2", "unit": "%"},
      {"measurement": "FS", "setting": "[1]; [10]", "value": "41.5 ± 3.1", "unit": "%"},
      {"measurement": "effect on heart rate", "setting": "[1]; [11]", "value": "less effect on heart rate"},
      {"measurement": "MTD of acute toxicity experiment", "setting": "[2]", "value": 35, "unit": "mg/kg"},
      {"measurement": "LVPmax", "setting": "[3]; 1 μg/kg iv daily 5 days", "value": "102.12 ± 12.42", "unit": "mmHg"},
      {"measurement": "LVPmin", "setting": "[3]; 1 μg/kg iv daily 5 days", "value": "0.59 ± 3.05", "unit": "mmHg"},
      {"measurement": "LVPmax", "setting": "[3]; 3 μg/kg iv daily 5 days", "value": "114.68 ± 17.12", "unit": "mmHg"},
      {"measurement": "LVPmin", "setting": "[3]; 3 μg/kg iv daily 5 days", "value": "−1.12 ± 1.34", "unit": "mmHg"},
      {"measurement": "LVPmax", "setting": "[3]; 10 μg/kg iv daily 5 days", "value": "122.87 ± 17.37", "unit": "mmHg"},
      {"measurement": "LVPmin", "setting": "[3]; 10 μg/kg iv daily 5 days", "value": "−0.69 ± 1.05", "unit": "mmHg"},
      {"measurement": "effect on the right ventricle", "setting": "[3]; [11]", "value": "not apparent"},
      {"measurement": "L(−dp/dt)", "setting": "[3]; 1 μg/kg iv daily 5 days", "value": "−2933 ± 613.44", "unit": "mmHg/s"},
      {"measurement": "L(+dp/dt)", "setting": "[3]; 3 μg/kg iv daily 5 days", "value": "5000.45 ± 1535.88", "unit": "mmHg/s"},
      {"measurement": "L(−dp/dt)", "setting": "[3]; 3 μg/kg iv daily 5 days", "value": "−3249.52 ± 973.32", "unit": "mmHg/s"},
      {"measurement": "L(+dp/dt)", "setting": "[3]; 10 μg/kg iv daily 5 days", "value": "5104.88 ± 1332.05", "unit": "mmHg/s"},
      {"measurement": "L(−dp/dt)", "setting": "[3]; 10 μg/kg iv daily 5 days", "value": "−3658.34 ± 1390.97", "unit": "mmHg/s"},
      {"measurement": "red stained (ischemic hypoxic) tissue, Nagar-Oslen stain", "setting": "[4]; 5 μg/kg", "value": "patchy distribution"},
      {"measurement": "red stained (ischemic hypoxic) tissue, Nagar-Oslen stain", "setting": "[4]; 10 μg/kg", "value": "patchy distribution"},
      {"measurement": "red stained (ischemic hypoxic) myocardial cells, Nagar-Oslen stain", "setting": "[4]; 20 μg/kg", "value": "punctuate distribution"}
    ]}
  ]
}
